Assay [1] relates to T cells from patients allergic to ragweed. The assay is described as follows: T cell proliferation of ragweed allergic patient T cells to ragweed proteins and recombinant lysates (tritiated thymidine). In kind it is cell-based, human. The settings on record: for T cell recognition and proliferation (in words): T cells previously stimulated with mixed ragweed pollen extract, summary of Table 4. The source says:
T cells from patients allergic to ragweed, previously stimulated with a mixed ragweed pollen extract, can recognize and proliferate in response to pollen extract, ragweed skin test reagent (RWST), affinity purified Amb a I protein and crude bacterial lysates containing recombinant Amb a I gene products IA, IB and IC (Table 4). […] The use of crude bacterial lysates as antigens precludes a firm conclusion form the negative responses, since the relative levels of recombinant proteins in lysate have not been determined.
Peripheral blood mononuclear cells (PBMC) were purified from 60 ml of heparinized blood from ragweed-allergic patients. PBMC were subsequently treated as described below, although in individual cases, the length of time of cultivation with IL-2 and IL-4 and the specific ragweed proteins and peptides used for stimulation varied. As an example, ten ml of patient 222 PBMC at 10^6/ml were cultured at 37° C. for 7 days in the presence of 20 micrograms aqueous ragweed pollen extract/ml RPMI-1640 supplemented with 5% pooled human AB serum. Viable cells were purified by Ficoll-Hypaque centrifugation and cultured for three weeks at 5 units recombinant human IL-2/ml and 5 units recombinant human IL-4/ml. The resting T cells were then restimulated (secondary) with 20 micrograms aqueous ragweed pollen extract/ml at a density of 2×10^5 cells/ml in the presence of X-irradiated (3500 RADS) autologous PBMC (5×10^5/ml) for three days, purified by Ficoll-Hypaque centrifugation and grown in 5 units IL-2/ml and 5 units IL-4/ml for two weeks. For assay, 2×10^4 resting secondary T cells were restimulated (tertiary) in the presence of 5×10^4 X-irradiated (3500 RADS) autologous PBMC or 2×10^4 autologous Epstein-Barr virus-transformed B cells (20,000 RADS) with various concentrations of allergen or their fragments in a volume of 200 microliters in 96-well round bottom assay plates for 3 days. Each well then received 1 microCurie tritiated (methyl) thymidine for 16 hours. The counts incorporated were collected onto glass fiber filters and processed for liquid scintillation counting. […] Antigens used: IPC aqueous pollen extract (pollen), Hollister-Stier ragweed skin test extract (RWST), ALK cat epithelium skin test extract (CST), affinity 4B5/B7 antibody purified (dialyzed) Amb a I (B7), and chromatographically purified Amb a I and (Amb a I). Medium only control is shown as a line with no symbol. Alternatively, PBMC were sometimes carried only into a secondary assay (as outlined above for a tertiary assay) with 20 micrograms aqueous pollen extract 7 days, followed by culture in 5 units IL-2/ml and 5 units IL-4/ml for 2-3 weeks. […] Secondary and tertiary assays of a panel of ragweed allergic patients were performed using synthetic peptides derived from the sequences of various ragweed pollen proteins. […] Another four peptides (RAE15.6, RAE3.D, RAE28.1, RAE26.15) which are also derived from the sequence of the same three cDNA's could stimulate 35 to 58% of the patients' T cells. One peptide (RAE4) which is derived from the cDNA of IPC Clone 5 could also stimulate 25% of the patients' T cells. […] By this method it is possible to identify novel therapeutic and diagnostics entities for use in the treatment and the diagnosis of ragweed allergy.

The test system of assay [2] is rabbit antisera directed against an Amb a II sequence (amino acid 326-338; RAE 50. K). The assay can be described thus: Western blot of recombinant proteins with monospecific anti-peptide antisera against RAE 50. K. Format: binding. The settings on record: Western blots, data not shown. The source says: Proteins or peptides encoded by the cDNA of the present invention can be used, for example, as “purified” allergens. Such purified allergens are useful in the standardization of allergen extracts which are key reagents for the diagnosis and treatment of ragweed allergy. Furthermore, by using peptides based on the sequences listed in FIGS. 2 through 16, anti-peptide antisera or monoclonal antibodies can be made using standard methods. Such reagents can be specifically directed against individual isoforms of Amb a I or Amb a II (i.e., directed against divergent regions/epitopes of the molecule) or can be specific for all forms Amb a I or Amb a II (i.e, directed against common sequences/epitopes). These sera or monoclonal antibodies, directed against Amb a I or Amb a II, can be used to standardize allergen extracts. One such monospecific anti-peptide antisera has already been successfully produced.
(In general: A western blot detects proteins with antibodies after separation by electrophoresis.)

In assay [3] the test system is goat anti-Amb a I antibody. The assay is described as follows: Western blot of E. coli-expressed recombinant Amb a I / Amb a II with goat anti-Amb a I antibody (FIG. 19). Format: binding. How it is done:
Furthermore, full-length and truncated cDNAs encoding several members of the Amb a I multigene family, as well as Amb a II, were cloned in-frame into the expression vector pTrc99 (Amann et al. Gene, 69:301-315, (1988)) and transformed into the JM109 host. Expression of recombinant Amb a I and Amb a II protein was induced by 1 mM isopropyl-β-D-thiogalactopyranoside, cells were harvested, lysozyme treated, sonicated and insoluble inclusion bodies recovered by a low speed centrifugation. Recombinant Amb a I and Amb a II protein present in the recovered pellet was solubilized in buffer containing 8M urea, 50 mM Tris HC1 pH8.0, 50 mM NaCl, 1 mM EDTA, 1 mM dithiothreitol, 1 mM phenylmethylsulfonyl fluoride. After solubilization, the crude urea lysate was dialyzed at 4° C. against PBS. […] This antigenic cross-reactivity is consistent with the observed sequence homology of the cDNAs (see FIG. 16).
Isoelectric focusing was done on a Hoeffer gel apparatus with 15 μg of crude soluble pollen protein. The gel consisted of 7.5% acrylamide with 3.5% Pharmalytes pH 4.5-5.3 (Pharmacia) and 3.5% Ampholines pH 3.5-10 (LKB), run at 13W for 3.5 hours until a constant voltage was reached. The gel section was placed on a slab of 10% acrylamide SDS-PAGE and electrophoresed for 3.5 hours at 40 mA according to the protocol cited. The proteins were transferred overnight in phosphate buffer to 0.1 micron nitrocellulose (Schleicher and Schuell) at 0.2A. The blot was rinsed in blot solution (25 mM Tris-CHl pH 7.5, 0.171 M NaCl, 0.05% Tween-20; Sigma). The first antibody incubation was overnight at room temperature with a […] of goat anti-Amb a I IgC (obtained from Dr. David Marsh) in blot solution. The excess first antibody was removed with three 15 minute rinses with blot solution. The second antibody was a 1:2,500 dilution of biotinylated swine anti-goat IgG (Boehringer-Manneheim) in blot solution for two hours. The blot was then rinsed with blot solution three times for 15 minutes and incubated for 1 hr in blot solution with 2 μCi I^125 streptavidin (Amersham). The blots were rinsed with blot solution until the waste wash was down to background. The blot was then exposed to film at —80° C. overnight. In the case of one-dimensional SDS-PAGE Western blots (FIGS. 17, 19 and 20) the isoelectric focusing step was omitted. When human sera was used to probe the Western blots (FIGS. 17 and 20), 10% human plasma in 1% milk in blot solution was incubated overnight with the blot prior to using as second antibody biotinylated goat anti-human IgE.

The mark [4] stands for this setting: patient 151 2° (secondary assay).
Where [5] appears, read: patient 222 2° (secondary assay).
Setting [6] is: patient 274 2° (secondary assay).
[7] abbreviates: patient 296 2° (secondary assay).
Where [8] appears, read: patient 314 2° (secondary assay).
The mark [9] stands for this setting: patient 316 2° (secondary assay).
Setting [10] is: patient 319 2° (secondary assay).
[11] abbreviates: patient 321 2° (secondary assay).

B1: affinity purified Amb a I: protein affinity purified from pollen extract with monoclonal antibody 4B5/B7 (protein)
chain: AEDLQEILPVNETRRLTTSGAYNIIDGCWRGKADWAENRKALADCAQGFGKGTVGGKDGDIYTVTSELDDDVANPKEGTLRFGAAQNRPLWIIFERDMVIRLDKEMVVNSDKTIDGRGAKVEIINAGFTLNGVKNVIIHNINMHDVKVNPGGLIKSNDGPAAPRAGSDGDAISISGSSQIWIDHCSLSKSVDGLVDAKLGTTRLTVSNSLFTQHQFVLLFGAGDENIEDRGMLATVAFNTFTDNVDQRMPRCRHGFFQVVNNNYDKWGSYAIGGSASPTILSQGNRFCAPDERSKKNVLGRHGEAAAESMKWNWRTNKDVLENGAIFVASGVDPVLTPEQSAGMIPAEPGESALSLTSSAGVLSCQPGAPC
As for B1, the “T cell recognition and proliferation (in words)” value in assay [1] is reported as “proliferate”. Also, the “T cell response in secondary assay (in words)” value in assay [1] (one ragweed allergic patient, FIG. 21) was “responded”. Further, the “Stimulatory response of human T cells (proliferation compared to medium control)” value is “(+) (2 fold)” in assay [1] (setting [4]); “+++ (>10 fold)” in assay [1] (setting [5]); “++ (4-10 fold)” in assay [1] (setting [6]); “+++ (>10 fold)” in assay [1] (setting [7]); “+++ (>10 fold)” in assay [1] (setting [8]); “+++ (>10 fold)” in assay [1] (setting [9]). In addition, the “Stimulatory response of human T cells (proliferation compared to medium control)” value is “++ (4-10 fold)” in assay [1] (setting [10]), “+++ (>10 fold)” in assay [1] (patient 320 2° (secondary assay)) and “+ (2-4 fold)” in assay [1] (setting [11]).

B2: Amb a IA: full-length recombinant Amb a IA, amino acid 10-398, E. coli expressed, used as crude bacterial lysate (protein)
chain: LYFTLALVTLLQPVRSAEDLQEILPVNETRRLTTSGAYNIIDGCWRGKADWAENRKALADCAQGFGKGTVGGKDGDIYTVTSELDDDVANPKEGTLRFGAAQNRPLWIIFERDMVIRLDKEMVVNSDKTIDGRGAKVEIINAGFTLNGVKNVIIHNINMHDVKVNPGGLIKSNDGPAAPRAGSDGDAISISGSSQIWIDHCSLSKSVDGLVDAKLGTTRLTVSNSLFTQHQFVLLFGAGDENIEDRGMLATVAFNTFTDNVDQRMPRCRHGFFQVVNNNYDKWGSYAIGGSASPTILSQGNRFCAPDERSKKNVLGRHGEAAAESMKWNWRTNKDVLENGAIFVASGVDPVLTPEQSAGMIPAEPGESALSLTSSAGVLSCQPGAPC
For B2, the “Binding by rabbit anti-RAE 50. K antisera (in words)” value in assay [2] is reported as “not”. Besides, in assay [1], the “T cell recognition and proliferation (in words)” value is “proliferate”. Further, the “Stimulatory response of human T cells (proliferation compared to medium control)” value in assay [1] (setting [4]) is “(+) (2 fold)”; in assay [1] (setting [5]) it was “++ (4-10 fold)”. The “Binding by goat anti-Amb a I antibody (in words)” value in assay [3] is “binds specifically”.

B3: Amb a IC: E. coli expressed recombinant Amb a IC, used as crude bacterial lysate (protein)
chain: LYFTLALVALLQPVRSAEGVGEILPSVNETRSLQACEALNIIDKCWRGKADWENNRQALADCAQGFAKGTYGGKWGDVYTVTSNLDDDVANPKEGTLRFAAAQNRPLWIIFKNDMVINLNQELVVNSDKTIDGRGVKVEIINGGLTLMNVKNIIIHNINIHDVKVLPGGMIKSNDGPPILRQASDGDTINVAGSSQIWIDHCSLSKSFDGLVDVTLGSTHVTISNCKFTQQSKAILLGADDTHVQDKGMLATVAFNMFTDNVDQRMPRCRFGFFQVVNNNYDRWGTYAIGGSSAPTILCQGNRFLAPDDQIKKNVLARTGTGAAESMAWNWRSDKDLLENGAIFVTSGSDPVLTPVQSAGMIPAEPGEAAIKLTSSAGVFSCRPGAPC
Take B3: the “Binding by rabbit anti-RAE 50. K antisera (in words)” value in assay [2] is on record as “not”. Moreover, the “T cell recognition and proliferation (in words)” value in assay [1] is “proliferate”. The “Stimulatory response of human T cells (proliferation compared to medium control)” value was “+ (2-4 fold)” in assay [1] (setting [4]); “++ (4-10 fold)” in assay [1] (setting [5]); “++ (4-10 fold)” in assay [1] (setting [6]); “+ (2-4 fold)” in assay [1] (patient 295 2° (secondary assay)); “+++ (>10 fold)” in assay [1] (setting [7]); “+++ (>10 fold)” in assay [1] (setting [8]). Besides, the “Stimulatory response of human T cells (proliferation compared to medium control)” value in assay [1] (setting [9]) was “+++ (>10 fold)”; in assay [1] (setting [10]), “++ (4-10 fold)”; in assay [1] (setting [11]), “+ (2-4 fold)”. Moreover, the “Binding by goat anti-Amb a I antibody (in words)” value in assay [3] was “binds specifically”.

Source of the values: patent publication US6335019B1, “Methods for treating sensitivity to protein allergen using peptides which include a T cell epitope recognized by a T cell receptor specific for the protein allergen” (Immulogic Pharmaceutical Corp., priority 1989, dated 2002).
